From patent US20240301052A1 (LANOVA MEDICINES DEVELOPMENT, published 2024)
Where a chain is given by its changes, count along the chain named. Like-named read-outs stand apart in the source and are kept apart here. Blank lines part the entries; values can stand above or below the binder they belong to.

Key:
[1] = target: T1, human SLC34A2 (human, UniProt O95436 1-690); assay: FACS, OVCAR3 cells
T1 construct: whole, on cells; also called human solute carrier 34 A2; NaPi2b
T1 sequence (looked up): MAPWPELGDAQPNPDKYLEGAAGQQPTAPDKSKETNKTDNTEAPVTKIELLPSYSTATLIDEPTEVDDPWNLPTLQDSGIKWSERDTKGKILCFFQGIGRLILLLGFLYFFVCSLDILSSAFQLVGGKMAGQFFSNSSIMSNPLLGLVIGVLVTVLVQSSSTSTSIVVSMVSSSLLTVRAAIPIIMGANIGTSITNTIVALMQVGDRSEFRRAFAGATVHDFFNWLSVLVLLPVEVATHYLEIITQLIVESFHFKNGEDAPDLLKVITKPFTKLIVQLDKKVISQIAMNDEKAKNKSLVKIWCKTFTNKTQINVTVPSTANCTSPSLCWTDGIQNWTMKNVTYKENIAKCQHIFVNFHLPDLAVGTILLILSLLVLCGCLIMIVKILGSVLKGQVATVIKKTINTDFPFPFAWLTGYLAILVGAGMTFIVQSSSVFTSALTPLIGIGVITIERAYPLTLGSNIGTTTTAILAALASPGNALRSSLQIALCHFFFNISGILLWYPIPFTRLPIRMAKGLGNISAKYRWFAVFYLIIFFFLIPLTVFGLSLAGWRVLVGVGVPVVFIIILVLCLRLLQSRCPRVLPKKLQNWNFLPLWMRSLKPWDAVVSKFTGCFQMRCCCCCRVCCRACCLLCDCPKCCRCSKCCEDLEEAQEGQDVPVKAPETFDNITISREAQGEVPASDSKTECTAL

[2] = target: T1, human SLC34A2; assay: FACS, RMG-1 cells
Description: (§1) In another testing, cell based binding of hu Abs on human SLC34A2 expressing cells were assessed using flow cytometry. Briefly, the HEK293/H_SLC34A2, OVCAR3 and RMG-1 cells were incubated with hu Abs. After incubation at 4° C. for 60 minutes, the cells were washed with FACS buffer twice, then stained with fluorescent conjugated secondary antibody at 4° C. for 30 minutes. After that the cells were washed twice and analyzed by flow cytometry.

[3] = target: T1, human SLC34A2; assay: FACS, HEK293/human SLC34A2 cells
Description: as §1

[4] = target: T1, human SLC34A2; assay: cell-based or functional assay
[5] = target: T1, human SLC34A2; assay: FACS, OVCAR3 cells; remark: listed apart in the source
Description: as §1

[6] = target: T2, Rhesus SLC34A2 (Rhesus, UniProt F7HDA3 1-690); assay: FACS, HEK293/Rhesus SLC34A2 cells
T2 construct: whole, on cells
T2 sequence: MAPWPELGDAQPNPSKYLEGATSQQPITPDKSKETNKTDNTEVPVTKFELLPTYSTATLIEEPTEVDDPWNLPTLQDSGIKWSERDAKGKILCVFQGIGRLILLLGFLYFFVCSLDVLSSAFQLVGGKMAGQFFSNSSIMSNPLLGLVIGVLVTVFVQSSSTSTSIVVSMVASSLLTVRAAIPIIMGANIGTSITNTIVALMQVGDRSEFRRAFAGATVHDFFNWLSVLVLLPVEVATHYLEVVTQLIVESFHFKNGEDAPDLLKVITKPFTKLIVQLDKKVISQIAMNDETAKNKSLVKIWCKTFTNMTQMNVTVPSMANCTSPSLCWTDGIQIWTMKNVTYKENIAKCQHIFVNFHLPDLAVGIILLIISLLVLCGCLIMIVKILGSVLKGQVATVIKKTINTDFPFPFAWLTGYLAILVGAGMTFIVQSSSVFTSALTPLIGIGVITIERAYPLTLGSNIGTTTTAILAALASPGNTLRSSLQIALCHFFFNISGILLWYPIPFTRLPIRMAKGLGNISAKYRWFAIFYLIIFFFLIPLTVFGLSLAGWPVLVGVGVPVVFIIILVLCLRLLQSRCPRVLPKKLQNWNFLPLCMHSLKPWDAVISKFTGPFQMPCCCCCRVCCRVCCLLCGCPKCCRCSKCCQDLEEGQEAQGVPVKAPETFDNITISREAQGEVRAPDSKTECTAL

[7] = target: T1, human SLC34A2; assay: FACS, HEK293/human SLC34A2 cells; remark: listed apart in the source
Description: (§2) Briefly, OVCAR3 cells or HEK293 cells expressing human SLC34A2 were incubated with chimeric antibodies (from 200 nM, 4 folds dilution, 8 points). After incubation at 4° C. for 60 minutes, the cells were washed with FACS buffer twice, then stained with fluorescent conjugated secondary antibody at 4° C. for 30 minutes. After that the cells were washed twice and analyzed by flow cytometry.

[8] = target: T1, human SLC34A2; assay: FACS, HEK293/human SLC34A2 cells; remark: listed apart in the source
Description: The PTM-derisked VH chains were first tested for their impact on target binding. Cell based binding of PTM Abs on human SLC34A2 expressing cells were assessed using flow cytometry. Briefly, the HEK293/H_SLC34A2 cells were incubated with PTM Abs (from 200 nM, 4 folds dilution, 8 points). After incubation at 4° C. for 60 minutes, the cells were washed with FACS buffer twice, then stained with fluorescent conjugated secondary antibody at 4° C. for 30 minutes. After that the cells were washed twice and analyzed by flow cytometry.

[9] = target: T3, Cynomolgus SLC34A2 (Cynomolgus, UniProt A0A2K5UHY1 1-690); assay: FACS, cells expressing Cynomolgus SLC34A2
T3 construct: whole, on cells; also called Cyno SLC34A2
T3 sequence: T2 sequence with P325H, I530V

[10] = target: T1, human SLC34A2; assay: FACS, OVCAR3 cells; remark: listed apart in the source
Outline: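 Flow cytometry binding: cells (OVCAR3, or HEK293 transfected with human SLC34A2) exposed 60 min at 4° C to chimeric hIgG1, 8-point 4-fold series starting 200 nM. Washed, stained 30 min at 4° C with fluorescent anti-human secondary, then analysed.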

[11] = target: T1, human SLC34A2; assay: FACS, RMG-1 cells; remark: listed apart in the source
Description: Based on the foregoing cell-based binding results, some of the chimeric antibodies were selected for further cell based binding on human SLC34A2 expressing cells using flow cytometry. RMG-1 cells were incubated with the selected chimeric antibodies (from 200 nM, 4 folds dilution, 8 points). After incubation at 4° C. for 60 minutes, the cells were washed with FACS buffer twice, then stained with fluorescent conjugated secondary antibody at 4° C. for 30 minutes. Afterwards the cells were washed twice and analyzed by flow cytometry.

[12] = target: T1, human SLC34A2; assay: cell-based or functional assay; remark: listed apart in the source
[13] = target: T1, human SLC34A2; assay: cell-based or functional assay; remark: listed apart in the source
[14] = target: T2, Rhesus SLC34A2; assay: FACS, HEK293/Rhesus SLC34A2 cells; remark: listed apart in the source
[15] = target: T1, human SLC34A2; assay: FACS, OVCAR3 cells; remark: listed apart in the source
[16] = target: T2, Rhesus SLC34A2; assay: FACS, HEK293/Rhesus SLC34A2 cells; remark: listed apart in the source
Description: as §2, with “the Rhesus SLC34A2 expressing HEK293 engineering” for “OVCAR3”, “(HEK293/Rhesus_SLC34A2)” for “or HEK293 cells expressing human SLC34A2”, “Abs” for “antibodies”

EC50 [1]: 1.72 nM | Top (MFI) [1]: 36100 MFI | EC50 [2]: 3.03 nM | Top [2]: 9560 MFI | EC50 [3]: 1.72 nM | Top [3]: 36100 MFI | ADCC reporter EC50 [4]: 1.77 nM | ADCC reporter Top (MFI) [4]: 125000 MFI | EC50 [5]: 2.86 nM | Top [5]: 20300 MFI | EC50 [6]: 8.8 nM | Top (MFI) [6]: 8160 MFI
B1: 91C9F1.p1.z6 hIgG1 (antibody, V domains shown)
VH: QVQLVQSGAEVKKPGSSVKVSCKTSGFFFTEYIIHWVRQAPGQGLEWIGGIIPNNDVTNYKQNFRGRVTLTADKSTSTAYMELSSLRSEDTAVYYCARWRNAYYSAMDSWGQGTTVTVSS
VL: DIQMTQSPSSLSTSVGDRVTITCTASQDVGTAVAWYQQKPGKSPKLLIYWASTRHTGVPERFSGSGSGTDFTLTISSLQPEDVATYFCQQYRTSPLTFGGGTKVEIK
notes: humanized hIgG1

EC50 [1]: 2.32 nM | Top (MFI) [1]: 38100 MFI | EC50 [2]: 3.91 nM | Top [2]: 9590 MFI | EC50 [3]: 2.32 nM | Top [3]: 38100 MFI | ADCC reporter EC50 [4]: 2.37 nM | ADCC reporter Top (MFI) [4]: 138000 MFI | EC50 [5]: 3.96 nM | Top [5]: 22300 MFI | EC50 [6]: 4.2 nM | Top (MFI) [6]: 9230 MFI
B2: 91C9F1.p1.z10 hIgG1 (antibody, V domains shown)
VH: B1 VH with K12V, A40S, V68A
VL: B1 VL
notes: humanized hIgG1

EC50 [1]: 1.12 nM | Top (MFI) [1]: 34600 MFI | EC50 [2]: 3.22 nM | Top [2]: 9820 MFI | EC50 [3]: 1.12 nM | Top [3]: 34600 MFI | ADCC reporter EC50 [4]: 3.14 nM | ADCC reporter Top (MFI) [4]: 137000 MFI | EC50 [5]: 2.71 nM | Top [5]: 20200 MFI | EC50 [6]: 3.2 nM | Top (MFI) [6]: 6720 MFI
B3: 91C9F1.p1.z4 hIgG1 (antibody, V domains shown)
VH: B1 VH with T24A, I48M, L70I, K74E
VL: B1 VL with Q3V, M4V, S63T, L78V, G100V, V104L, I106L
notes: humanized hIgG1

EC50 [7]: 1.8 nM | Top (MFI) [7]: 115000 MFI | EC50 [8]: 1.48 nM | Top (MFI) [8]: 30400 MFI | EC50 [9]: 2.7 nM | Top (MFI) [9]: 3540 MFI | EC50 [10]: 3.31 nM | Top (MFI) [10]: 42900 MFI | EC50 [11]: 3.48 nM | Top (MFI) [11]: 9500 MFI | ADCC reporter EC50 [13]: 3 nM | ADCC reporter Top (MFI) [13]: 530000 MFI | EC50 [14]: 4.9 nM | Top (MFI) [14]: 46400 MFI | EC50 [15]: 5.1 nM | Top (MFI) [15]: 71400 MFI | EC50 [16]: 2.46 nM | Top (MFI) [16]: 15900 MFI
B4: xi55E5B6D12 hIgG1 (antibody, V domains shown)
VH: QVQLQQSGAEVVNSGASVKMSCKASGYTFTTYNMHWVKQTPGQGLEWIGAIYPGNGDTSYNQRFKGKATFTADRSSGTAYMQLSSLPSEDSAVYYCARGGYANGALVDWGQGTLVTVSA
VL: DILMTQSHKFMSTSVGDRVTITCKASQDVGTAVAWYQNKPGQSPKLLIFWTSTRHTGVPDRFTGSGSGTDFTLTISNVQSEDLADYFCQQYSRQPLTFGPGTKLEIK
notes: chimeric, hIgG1
cytotoxicity EC50 [12]: 0.69 nM | cytotoxicity Inhibition % [12]: 96.7%

EC50 [7]: 1.52 nM | Top (MFI) [7]: 114000 MFI | EC50 [8]: 1.14 nM | Top (MFI) [8]: 32200 MFI | EC50 [9]: 2.4 nM | Top (MFI) [9]: 4560 MFI | EC50 [10]: 2.14 nM | Top (MFI) [10]: 43300 MFI | EC50 [11]: 2.77 nM | Top (MFI) [11]: 9920 MFI | ADCC reporter EC50 [13]: 2.3 nM | ADCC reporter Top (MFI) [13]: 397000 MFI | EC50 [14]: 3.5 nM | Top (MFI) [14]: 47400 MFI | EC50 [15]: 3.9 nM | Top (MFI) [15]: 72900 MFI | EC50 [16]: 2.19 nM | Top (MFI) [16]: 18500 MFI
B5: xi90G10H7 hIgG1 (antibody, V domains shown)
VH: QVQLQQPGAVLVKPGASVKMSCKASGYTFTSYIIHWVKQTPGQGLEWVGAIYPGNGDASSIQKFKGKATLTVDKSSSTAYMQLSSLTSADSAVYYCARGHYYGSAAWFAYWGQGTLVTVSA
VL: DILLTQSPAILSVSPGERVSFSCRASQNIGTGIHWYQQRTNGSLRLLIKYASESISGIPSRFSGSGSGTDFTLSINSVESEDIADYYCQQSNSWPLTFGAGTKLELK
notes: chimeric, hIgG1
cytotoxicity EC50 [12]: 0.28 nM | cytotoxicity Inhibition % [12]: 103%
